Test results reported in PMC8368100, “Structural basis for ALK2/BMPR2 receptor complex signaling through kinase domain oligomerization” (Nature Communications, 2021).

T1: BMPR2 kinase domain (BMPR2^KD, residues 189-529) (human, UniProt Q13873 189-529)
T1 construct: BMPR2, type II BMP receptor, kinase domain, residues 189-529; TEV site between His tag and kinase domain; also called BMP receptor type II; source: BL21 E. coli, purified (Ni-NTA, TEV cleavage, SEC, Mono-Q); not shown: His tag, N-terminal, cleaved
T1 sequence (looked up): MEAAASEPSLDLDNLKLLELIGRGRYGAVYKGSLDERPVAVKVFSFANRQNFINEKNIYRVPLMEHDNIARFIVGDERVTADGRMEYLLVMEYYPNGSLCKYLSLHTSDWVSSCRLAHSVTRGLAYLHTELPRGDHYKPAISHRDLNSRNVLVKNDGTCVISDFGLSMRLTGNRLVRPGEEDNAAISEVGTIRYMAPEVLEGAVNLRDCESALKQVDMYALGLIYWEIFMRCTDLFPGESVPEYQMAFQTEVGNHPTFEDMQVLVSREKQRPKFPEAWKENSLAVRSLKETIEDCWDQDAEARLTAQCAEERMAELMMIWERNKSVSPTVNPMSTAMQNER


Target: T1, BMPR2 kinase domain (BMPR2^KD, residues …)
Test: SEC; Superdex 200 Increase 10/300 GL; kinase domains alone or as a stoichiometric mixture; also run in buffers with increasing NaCl
Conditions: both partners purified

binding result	Binder
binds	ALK2 kinase domain (ALK2^KD, residues 201-499) (domain or fragment, human, UniProt Q04771 201-499, looked up, ALK2 (ACVR1), type I BMP receptor, kinase domain without the GS domain, residues 201-499; TEV site between His tag and kinase domain; also called ACVR1; ActRIA; source: SF9 insect cells, purified (Ni-NTA, TEV cleavage, SEC); not shown: His tag, N-terminal, cleaved) QRTVARQITLLECVGKGRYGEVWRGSWQGENVAVKIFSSRDEKSWFRETELYNTVMLRHENILGFIASDMTSRHSSTQLWLITHYHEMGSLYDYLQLTTLDTVSCLRIVLSIASGLAHLHIEIFGTQGKPAIAHRDLKSKNILVKKNGQCCIADLGLAVMHSQSTNQLDVGNNPRVGTKRYMAPEVLDETIQVDCFDSYKRVDIWAFGLVLWEVARRMVSNGIVEDYKPPFYDVVPNDPSFEDMRKVVCVDQQRPNIPNRWFSDPTLTSLAKLMKECWYQNPSARLTALRIKKTLTKID
binds	ALK2^KD-K492A (ALK2 kinase domain K492A) (domain or fragment, human, UniProt Q04771 201-499, looked up, ALK2 (ACVR1) kinase domain, residues 201-499, K492A; source: SF9 insect cells, purified (Ni-NTA, TEV cleavage, SEC); not shown: His tag, N-terminal, cleaved) QRTVARQITLLECVGKGRYGEVWRGSWQGENVAVKIFSSRDEKSWFRETELYNTVMLRHENILGFIASDMTSRHSSTQLWLITHYHEMGSLYDYLQLTTLDTVSCLRIVLSIASGLAHLHIEIFGTQGKPAIAHRDLKSKNILVKKNGQCCIADLGLAVMHSQSTNQLDVGNNPRVGTKRYMAPEVLDETIQVDCFDSYKRVDIWAFGLVLWEVARRMVSNGIVEDYKPPFYDVVPNDPSFEDMRKVVCVDQQRPNIPNRWFSDPTLTSLAKLMKECWYQNPSARLTALRIAKTLTKID
